The text below walks through data of article PMC12490080, “Natural variation in Arabidopsis thaliana highlights a key role of glyoxalase I;2 in detoxifying glucose-derived reactive carbonyl species” (BMC Plant Biology, 2025).

Substrate in data set [1]: O=CC=O
The data set can be described thus: purified protein. It counts as biochemical, Arabidopsis thaliana. As to conditions: true substrate is the hemithioacetal of GO and GSH (preformed 30 min; HTA concentration calculated with Kdiss 3.0 mM), 1.7 mM GSH, 0.5 mM Mn2+, 100 mM MOPS pH 7.0, 25 °C.

Substrate in data set [2]: CC(=O)C=O
The data set is described as follows: purified protein. It counts as biochemical, Arabidopsis thaliana. The following applies: true substrate is the hemithioacetal of MGO and GSH (preformed 30 min; HTA concentration calculated with Kdiss 3.0 mM), 1.7 mM GSH, 0.5 mM Ni2+, 100 mM MOPS pH 7.0, 25 °C.

B1: GLXI;2 (Col-0 GLXI;2) (Arabidopsis thaliana) (protein)
chain: MAEASDLLEWPKKDNRRFLHVVYRVGDLDRTIEFYTEVFGMKLLRKRDIPEEKYSNAFLGFGPETSNFVVELTYNYGVSSYDIGTGFGHFAISTQDVSKLVENVRAKGGNVTREPGPVKGGGSVIAFVKDPDGYTFELIQRGPTPEPFCQVMLRVGDLDRAIKFYEKALGMRLLRKIERPEYKYTIGMMGYAEEYESIVLELTYNYDVTEYTKGNAYAQIAIGTDDVYKSGEVIKIVNQELGGKITREAGPLPGLGTKIVSFLDPDGWKTVLVDNKDFLKELE
notes: monomer; two domains, active site 2 (His89, Glu137, Gln150, Glu201)
With B1, in “purified protein [1]”, the Michaelis constant (Km) was 411 ± 18 µM, the kcat was 2.8 ± 0.3 s⁻¹ and the specificity constant (kcat/Km) is 6800 ± 600 M⁻¹ s⁻¹. In the data set “purified protein [2]”, the Km was 297 ± 14 µM, the kcat is 7.5 ± 0.9 s⁻¹ and the kcat/Km is 25300 ± 1700 M⁻¹ s⁻¹.

B2: GLXI;2 (Col-0 GLXI;2) (Arabidopsis thaliana; F278I/K229N) (protein)
chain: MAEASDLLEWPKKDNRRFLHVVYRVGDLDRTIEFYTEVFGMKLLRKRDIPEEKYSNAFLGFGPETSNFVVELTYNYGVSSYDIGTGFGHFAISTQDVSKLVENVRAKGGNVTREPGPVKGGGSVIAFVKDPDGYTFELIQRGPTPEPFCQVMLRVGDLDRAIKFYEKALGMRLLRKIERPEYKYTIGMMGYAEEYESIVLELTYNYDVTEYTKGNAYAQIAIGTDDVYNSGEVIKIVNQELGGKITREAGPLPGLGTKIVSFLDPDGWKTVLVDNKDILKELE
notes: as for B1
With B2, in “purified protein [1]”, the Michaelis-Menten constant (Km) was 407 ± 15 µM, the kcat is 2.6 ± 0.3 s⁻¹ and the specificity constant (kcat/Km) is 6700 ± 500 M⁻¹ s⁻¹. Also, in the data set “purified protein [2]”, the Km is 302 ± 15 µM, the kcat was 8.1 ± 1.1 s⁻¹ and the specificity constant (kcat/Km) was 25800 ± 2100 M⁻¹ s⁻¹.

B3: GLXI;2 (Col-0 GLXI;2) (Arabidopsis thaliana; K229N) (protein)
chain: MAEASDLLEWPKKDNRRFLHVVYRVGDLDRTIEFYTEVFGMKLLRKRDIPEEKYSNAFLGFGPETSNFVVELTYNYGVSSYDIGTGFGHFAISTQDVSKLVENVRAKGGNVTREPGPVKGGGSVIAFVKDPDGYTFELIQRGPTPEPFCQVMLRVGDLDRAIKFYEKALGMRLLRKIERPEYKYTIGMMGYAEEYESIVLELTYNYDVTEYTKGNAYAQIAIGTDDVYNSGEVIKIVNQELGGKITREAGPLPGLGTKIVSFLDPDGWKTVLVDNKDFLKELE
notes: as for B1
In the case of B3, in “purified protein [1]”, the Michaelis-Menten constant (Km) is 415 ± 17 µM, the kcat was 2.4 ± 0.3 s⁻¹ and the kcat/Km was 6500 ± 500 M⁻¹ s⁻¹. Further, in “purified protein [2]”, the Km is 295 ± 23 µM, the kcat was 9.1 ± 1.7 s⁻¹ and the kcat/Km was 26400 ± 2200 M⁻¹ s⁻¹.

B4: GLXI;2 (Col-0 GLXI;2) (Arabidopsis thaliana; F278I) (protein)
chain: MAEASDLLEWPKKDNRRFLHVVYRVGDLDRTIEFYTEVFGMKLLRKRDIPEEKYSNAFLGFGPETSNFVVELTYNYGVSSYDIGTGFGHFAISTQDVSKLVENVRAKGGNVTREPGPVKGGGSVIAFVKDPDGYTFELIQRGPTPEPFCQVMLRVGDLDRAIKFYEKALGMRLLRKIERPEYKYTIGMMGYAEEYESIVLELTYNYDVTEYTKGNAYAQIAIGTDDVYKSGEVIKIVNQELGGKITREAGPLPGLGTKIVSFLDPDGWKTVLVDNKDILKELE
notes: as for B1
Regarding B4, in the data set “purified protein [1]”, the Michaelis-Menten constant (Km) was 403 ± 12 µM, the kcat is 2.5 ± 0.4 s⁻¹ and the kcat/Km was 6200 ± 300 M⁻¹ s⁻¹. In the data set “purified protein [2]”, the Km was 311 ± 18 µM, the kcat was 8.4 ± 1.2 s⁻¹ and the catalytic efficiency (kcat/Km) was 27000 ± 2400 M⁻¹ s⁻¹.
